Experimental data from patent US20260209316A1 (US Dept. of Health and Human Services, published 2026).

B1: antibody 102S (antibody, V domains shown)
VH: EVQLVESGGGLVQPGGSLRLSCSASGFTFHSYDMNWARQAPGKGLEWVSEISSSGQSKNYADSVRGRFTISRDNAKNSLYLQINSLRSEDTAVYYCARVGFVAKFGSDFSITHGTYYLDYWGQGTLVTVSS
VL: QLVLTQSPATLSLSPGERATLSCRASQSVSNYLAWYQQKPGQAPRLLIYDASNRAPGVPARFSGSGSGTDFSLTISSLEPEDFAVYYCLQRSNWPPWTFGQGTKVEIK
B2: antibody 405S (antibody, V domains shown)
VH: EVQLVESGGGLIQPGGSLRLSCAASGFTVSSHYMSWVRQAPGKGLEWVSGIYSGGRTHYADSVKGRFTISRDNSKNTLYLQMNSLRADDTAVYSCARGTLLYLYGMDVWGQGTTVTVSS
VL: QSVLTQPPSVSAAPGQRVTISCTGSSSNIGAGYNVHWYQQLPGAAPKLLIYGNTNRPSGVPDRFSGSKSGTSASLAITGLQAEDEADYYCQSFDSSLSGVFGTGTKVTVL
B3: antibody 382S (antibody, V domains shown)
VH: QVQLVQSGAEVKKPGSSVKVSCKASGGTFSNYGISWVRQAPGQGLEWMGRNIPIIGIANYAQKFQDRVTITADKSTSTVFMELRSLRYEDTAVYYCARDPLAARRGNWFDPWGQGTLVTVSS
VL: DIQMTQSPSTLSASVGDRVTITCRASQSVSSWLAWYQQKPGKAPKLLIYDASTLQSGVPSRFSGSGSGTEFTLTISSLQPDDFATYYCQQYNSYSYTFGQGTKLEIK
B4: antibody 578S (antibody, V domains shown)
VH: EVQLVESGGGVVQPGRSLRLSCAASGFTFSSYELHWVRQAPGKGLEWVAVISYDGSSKYYADSLKGRFTISRDNSKNTLSLQMNSLRAEDTAMYYCVRQSEAYCSDGRCDWRRALDIWGQGTMVTVSP
VL: DIQMTQSPSSLSASVGDRVTITCQASQDIKNYLNWYQQKPGKAPKLLIYDVSKLETGVPSRFSGSGSGTDFSFTISSLQPEDIATYYCQQYDNLPSYTFGQGTKLEIK
B5: antibody 365S (antibody, V domains shown)
VH: EVQLVESGGGLVQPGGSLRLSCAASGLTFSAYEMNWVRQAPGKGLEWVSHITTSGSAIYYADSVKGRFTISRDNAKNSLHLQMNRLRADDTAVYFCARDSTIVQCSGTSCHVSTYSYMDVWGKGTTVTVSS
VL: EIVLTQSPATLSLSPGERATLSCRASQSVTTYLAWYQHKPGQAPRLLIYDASKRATGIPARFSGSGSGTDFTLTISSLEPEDFAVYHCQQRSSWPPITFGQGTRLEIK
B6: antibody 285S (antibody, V domains shown)
VH: QVQLVQSGAEVKKPGSSVKVSCKASGGTFSTYAITWVRQAPGQGLEWMGRIIPILRVANYAQKFQGRVTITADSSTSTAYMELSSLRSEDTAVYYCANLLAYCGGDCRSDYWGQGTLVTVSS
VL: EIVLTQSPGTLSLSPGERATLSCRASQSVKNSYLAWYHQKPGQAPRLLIYGASSRATGIPDRFSGSGSGTDFTLTISRLEPEDFAVYYCQQYGSSLWTFGQGTKVDVK
B7: antibody 335S (antibody, V domains shown)
VH: EVQLVESGGGVVQPGRSLRLSCAASGFSFSNYAMHWVRQAPGKGLEWVAVTWYDGSSKYHADSVKGRFTISRDNSKNTLYLQMNSLRAEDTAVYYCARWGMGIVASPGNVLNYYYFMDVWGQGTTVIVSS
VL: SYELTQPPSVSVSPGQTARITCSGNPLPKKHTYWYQQKPGQAPVLMIYKDSERPSRIPERFSGSSSGTTVTLTISGVQAEDEADYYCQSADSTGIVVFGGGTKLTVL
B8: antibody 206L (antibody, V domains shown)
VH: EVQLVESGGGVVQPGGSLRLSCAASGFTFDDYAMHWVRQAPGKGLEWVSGISWSGGNTYYADSVKGRFTVSRENAKNSLYLQMNRLRAEDTAFYNCARTSQGGAVVFSAPNYWGQGVLVTVSS
VL: QSVLTQAPSVSGAPGQRVTISCTGSSSNIGGYYVQWYQQLPGRAPKLLIYENNKRPSGVSDRFSGSRSASSASLTITGLQSEDEADYYCQSYDSRLNGYIFGGGTRLTVL
B9: antibody 231L (antibody, V domains shown)
VH: EVQLVESGGGLVQPGGSLRLSCAASAFTFDDYAMHWVRQAPGKGLEWVSGITWSGLSTYYADSVKGRFTISRDNAKNSLYLQMNSLRVEDTALYYCAKSGNNSPFSGLDSWGQGAVVTVSS
VL: QSVLTQPPSVSGAPGQRVTVSCTGSSSNIGAGSYVQWYQQLPGTAPKLLIYENNKRPSGVSDRFSGSKSGTSASLTITGLQSEDEADYYCQSYDSSLNAYIFGAGTRLTVL
B10: antibody 314L (antibody, V domains shown)
VH: EERLVESGGGLVQPGGSLRLSCAASGFTFGDYAMHWVRQVPGKSLEWLSGISWSGYTTYSADSVKGRFTISRDNAKNSLYLQMNRLRPEDTGLYYCVTLIGAIGIKDSLDVWGRGVLVTVSS
VL: EVVFTQPHSVSGSPGQMVTISCTRSSGTIDNSYVYWHQQRPGSAPTTVIYNDDQRPSGVPDRFSGSIDSSSNSASLTISGLKSEDEADYYCQSYDSSGWVFGGGTRLTVL
B11: antibody 310L (antibody, V domains shown)
VH: EMQLVESGGGLVQPGGSLRLSCAASGFTFDAYAMHWVRQRPGKGLEWISGIIWSGRTTYYADSVKGRFTFSRDNSKNSLYLEMNSLKPEDTALYYCAKDSWNYGVYNSLDVWGRGILVTVSS
VL: QSVLTQPPSVSGAPGQRVTISCTGSSSNVGPHYVSWYQHLPGTTPKLLIFQDNKRPSGVSDRFSGSKSASSASLTITGLQTEDEADYYCLSYDSSLNVYIFGSGTRLTVL
B12: antibody 191L (antibody, V domains shown)
VH: EVQLVESGGGLVQPGGSLRLSCAASGFTFSSYGIHWVRQAPGKGLEWVAIISYDGNKKFHADSVKDRFTISRDNSKNMLYLQMNNLKLEDTAVYYCARAYDSGYFAGSVFYYWGQGVLVTVSS
VL: EVVFTQPHSVSGSPGQTVTISCTRSSGSIDSEYVQWYQQRPGNAPTTVIYKDNQRPSGVPDRFSGSIDSSSNSASLAISGLKSEDEADYYCQSADGNYHPVFGEGTRLTVL

target: T1, mucin domain-deleted Sudan GP (GPdMuc) (Sudan virus (SUDV), UniProt Q7T9D9 33-632); test: BLI competition on Sudan GPdMuc (lower table); competitor 316L
T1 construct: also called Sudan GPdMuc; GP(S)dMuc

Binder | % inhibition of binding [%]
B1 | 10.3
B2 | 7.24
B3 | 10.7
B4 | 7.8
B5 | 5.16
B6 | -6.78
B7 | 1.49

target: T1, mucin domain-deleted Sudan GP (GPdMuc); test: BLI competition on Sudan GPdMuc (lower table); competitor 15H10

Binder | % inhibition of binding [%]
B1 | 11.9
B2 | 11.1
B3 | 17.6
B4 | 7.51
B5 | 9.47
B6 | 7.47
B7 | 8.78

target: T1, mucin domain-deleted Sudan GP (GPdMuc); test: ELISA on coated GP

Binder | EC50 [µg/mL]
B1 | 0.09
B2 | 0.04
B3 | 0.26
B4 | 0.09
B5 | 0.06
B6 | 0.02
B7 | 0.02

target: T1, mucin domain-deleted Sudan GP (GPdMuc); test: BLI competition on Sudan GPdMuc (lower table); competitor 16F6

Binder | % inhibition of binding [%]
B1 | 19.4
B2 | 10.1
B3 | 13.6
B4 | 11.1
B5 | 12
B6 | 3.29
B7 | 8.17

target: T1, mucin domain-deleted Sudan GP (GPdMuc); test: BLI competition on Sudan GPdMuc (lower table); competitor mAb166

Binder | % inhibition of binding [%]
B1 | 78.2
B2 | 84.1
B3 | 84.9
B4 | 86.6
B5 | 84.2
B6 | 64.6
B7 | 80

target: T1, mucin domain-deleted Sudan GP (GPdMuc); test: ELISA on coated GP; remark: another data set of the same source

Binder | EC50 [µg/mL]
B8 | 0.2
B9 | 0.02
B10 | 0.31
B11 | 0.34
B12 | 1.74

target: T2, mucin domain-deleted Zaire GP (GPdMuc) (Ebola (Zaire) virus (EBOV), UniProt Q05320 33-632); test: ELISA on coated GP
T2 construct: also called Zaire GPdMuc; GP(Z)dMuc

Binder | EC50 [µg/mL]
B8 | 0.01
B9 | 0.01
B10 | 2.6
B11 | 0.01
B12 | 0.01
